Test results reported in publication PMC9371724 (2022).

T1: hemagglutinin (HA) of pandemic 2009 H1N1 (pHA, HA69) peptide on HLA-DQA1*01:02 / HLA-DQB1*06:02 (human)
T1 peptide: AMERNAGSGIIISDT

T2: HA69 peptide on HLA DQB1*06:02/DQA1*01:02 (DQ0602) (human)
T2 peptide: AMERNAGSGIIISDT

T3: hemagglutinin (HA) of pandemic 2009 H1N1 (pHA, HA69) peptide on HLA-DQA1*01:02 / HLA-DQB1*06:02 (human)
T3 peptide: AMERNAGSGIIISDT


Target: T1, hemagglutinin (HA) of pandemic 2009 …
Test: activation reporter or marker

Binder	binding result
TCR CALSPDSWGKLQF / CASSTRAPTRTGEKLFF (TCR) alpha TRAV6 TRAJ24 CDR3: CALSPDSWGKLQF beta TRBV7-9 TRBJ1-4 CDR3: CASSTRAPTRTGEKLFF	no recognition
TCR CAVSDGGTSYGKLTF / CASSQGNTGHSPLHF (TCR) alpha TRAV8-6 TRAJ52 CDR3: CAVSDGGTSYGKLTF beta TRBV4-3 TRBJ1-6 CDR3: CASSQGNTGHSPLHF	no recognition
TCR CAVSGGNAGNMLTF / CATQKGDRGQSWGYTF (TCR) alpha TRAV2 TRAJ39 CDR3: CAVSGGNAGNMLTF beta TRBV6-1 TRBJ1-2 CDR3: CATQKGDRGQSWGYTF	no recognition
TCR CIVRVGTNQGGKLIF / CASSQDRAGTNTEAFF (TCR) alpha TRAV26-1 TRAJ23 CDR3: CIVRVGTNQGGKLIF beta TRBV4-2 TRBJ1-1 CDR3: CASSQDRAGTNTEAFF	no recognition
TCR CATDTENNARLMF / CSAGGAGPKMQYF (TCR) alpha TRAV17 TRAJ31 CDR3: CATDTENNARLMF beta TRBV20-1 TRBJ2-7 CDR3: CSAGGAGPKMQYF	no recognition
TCR CAARQMDSSYKLIF / CASSVASSSYNEQFF (TCR) alpha TRAV23/DV6 TRAJ12 CDR3: CAARQMDSSYKLIF beta TRBV4-2 TRBJ2-1 CDR3: CASSVASSSYNEQFF	no recognition
TCR CIVRVVSNQGGKLIF / CASSPQGFDYGYTF (TCR) alpha TRAV26-1 TRAJ23 CDR3: CIVRVVSNQGGKLIF beta TRBV19 TRBJ1-2 CDR3: CASSPQGFDYGYTF	no recognition
TCR CLVGDMEYGNKLVF / CASSQAPPSGNEQFF (TCR) alpha TRAV4 TRAJ47 CDR3: CLVGDMEYGNKLVF beta TRBV4-2 TRBJ2-1 CDR3: CASSQAPPSGNEQFF	no recognition
TCR CVVSEPGTYKYIF / CASSPDGTGVGNTIYF (TCR) alpha TRAV8-2 TRAJ40 CDR3: CVVSEPGTYKYIF beta TRBV4-2 TRBJ1-3 CDR3: CASSPDGTGVGNTIYF	no recognition
TCR CAVSDNPRVQGAQKLVF / CSAAGTGGAGTEAFF (TCR) alpha TRAV8-6 TRAJ54 CDR3: CAVSDNPRVQGAQKLVF beta TRBV29-1 TRBJ1-1 CDR3: CSAAGTGGAGTEAFF	no recognition
TCR CALSGDNAGNNRKLIW / CASNSRLAGGHVAYNEQFF (TCR) alpha TRAV19 TRAJ38 CDR3: CALSGDNAGNNRKLIW beta TRBV12-3 TRBJ2-1 CDR3: CASNSRLAGGHVAYNEQFF	no recognition
TCR CIVRVATNQGGKLIF / CASSPQGGLAEQYF (TCR) alpha TRAV26-1 TRAJ23 CDR3: CIVRVATNQGGKLIF beta TRBV19 TRBJ2-7 CDR3: CASSPQGGLAEQYF	no recognition
TCR CIVRVATNQAGTALIF / CASSTQGAFAEAFF (TCR) alpha TRAV26-1 TRAJ15 CDR3: CIVRVATNQAGTALIF beta TRBV19 TRBJ1-1 CDR3: CASSTQGAFAEAFF	no recognition
TCR CATGSYNTDKLIF / CASSPDGTGVGNTIYF (TCR) alpha TRAV17 TRAJ34 CDR3: CATGSYNTDKLIF beta TRBV4-2 TRBJ1-3 CDR3: CASSPDGTGVGNTIYF	no recognition
TCR CVVNGEAPGNQFYF / CASSVASSSYNEQFF (TCR) alpha TRAV12-1 TRAJ49 CDR3: CVVNGEAPGNQFYF beta TRBV4-2 TRBJ2-1 CDR3: CASSVASSSYNEQFF	no recognition
TCR CIVRVLTNQGGKLIF / CASSFQGLSTDTQYF (TCR) alpha TRAV26-1 TRAJ23 CDR3: CIVRVLTNQGGKLIF beta TRBV12-3 TRBJ2-3 CDR3: CASSFQGLSTDTQYF	no recognition
TCR CAMRGQDSGYSTLTF / CASSIVRGLYSNQPQHF (TCR) alpha TRAV14/DV4 TRAJ11 CDR3: CAMRGQDSGYSTLTF beta TRBV19 TRBJ1-5 CDR3: CASSIVRGLYSNQPQHF	no recognition
TCR CIVRVGTNQAGTALIF / CASREQGLDYGYTF (TCR) alpha TRAV26-1 TRAJ15 CDR3: CIVRVGTNQAGTALIF beta TRBV19 TRBJ1-2 CDR3: CASREQGLDYGYTF	no recognition
TCR CAVSPGNNQGGKLIF / CASSTQGAGEAFF (TCR) alpha TRAV8-2 TRAJ23 CDR3: CAVSPGNNQGGKLIF beta TRBV19 TRBJ1-1 CDR3: CASSTQGAGEAFF	no recognition
TCR CAVSPSDSWGKLQF / CASSYPGLSQETQYF (TCR) alpha TRAV8-2 TRAJ24 CDR3: CAVSPSDSWGKLQF beta TRBV5-5 TRBJ2-5 CDR3: CASSYPGLSQETQYF	no recognition
TCR CIVRANTGNQFYF / CASSPDGTGVGNTIYF (TCR) alpha TRAV26-1 TRAJ49 CDR3: CIVRANTGNQFYF beta TRBV4-2 TRBJ1-3 CDR3: CASSPDGTGVGNTIYF	no recognition
TCR CAGSPSQGGSEKLVF / CSARPLGTSGRDEQFF (TCR) alpha TRAV35 TRAJ57 CDR3: CAGSPSQGGSEKLVF beta TRBV20-1 TRBJ2-1 CDR3: CSARPLGTSGRDEQFF	no recognition

Target: T2, HA69 peptide on HLA …
Test: activation reporter or marker

Binder	binding result
TCR CAASRGTSYDKVIF / CSVRGLYNEQFF (TCR) alpha TRAV13-1 TRAJ50 CDR3: CAASRGTSYDKVIF beta TRBV29-1 TRBJ2-1 CDR3: CSVRGLYNEQFF	recognises
TCR43 (TCR) alpha TRAV13-1 TRAJ43 CDR3: CAASDNDMRF beta TRBV4-2 TRBJ1-2 CDR3: CASSQETQGRNYGYTF	recognises
TCR846 (TCR) alpha TRAV8-6 TRAJ54 CDR3: CAVSESAQGAQKLVF beta TRBV19 TRBJ2-3 CDR3: CASSRPGLNTDTQYF	recognises
TCR CAVEETSGSRLTF / CASSQPDTRADTQYF (TCR) alpha TRAV39 TRAJ58 CDR3: CAVEETSGSRLTF beta TRBV4-2 TRBJ2-3 CDR3: CASSQPDTRADTQYF	recognises
…-1 (TCR) alpha TRAV8-3 TRAJ24 CDR3: CAVGLTDSWGKLQF beta TRBV19 TRBJ2-1 CDR3: CASSFSKNGNSYNEQFF	no recognition
TCR CAASRGTSYDKVIF / CSTQRLYNEQFF (TCR) alpha TRAV13-1 TRAJ50 CDR3: CAASRGTSYDKVIF beta TRBV29-1 TRBJ2-1 CDR3: CSTQRLYNEQFF	recognises
TCR CILRDVLSNFGNEKLTF / CASSQASVSVDTQYF (TCR) alpha TRAV26-2 TRAJ48 CDR3: CILRDVLSNFGNEKLTF beta TRBV4-2 TRBJ2-3 CDR3: CASSQASVSVDTQYF	recognises
TCR861 (TCR) alpha TRAV13-1 TRAJ50 CDR3: CAASRGTSYDKVIF beta TRBV29-1 TRBJ2-1 CDR3: CSVRSLYNEQFF	recognises
TCR CATGHTGANSKLTF / CASSLQGTPNGNQPQHF (TCR) alpha TRAV17 TRAJ56 CDR3: CATGHTGANSKLTF beta TRBV19 TRBJ1-5 CDR3: CASSLQGTPNGNQPQHF	recognises
TCR CAAVGMNGGAQKLVF / CASRSQGWGTEAFF (TCR) alpha TRAV13-1 TRAJ54 CDR3: CAAVGMNGGAQKLVF beta TRBV19 TRBJ1-1 CDR3: CASRSQGWGTEAFF	recognises
TCR CIVRAGGTSYGKLTF / CAWSPLAGTGAPQPQHF (TCR) alpha TRAV26-1 TRAJ52 CDR3: CIVRAGGTSYGKLTF beta TRBV30 TRBJ1-5 CDR3: CAWSPLAGTGAPQPQHF	recognises
TCR275 (TCR) alpha TRAV13-1 TRAJ43 CDR3: CAANNNDMRF beta TRBV4-2 TRBJ1-2 CDR3: CASSQETQGRNYGYTF	recognises
TCR285 (TCR) alpha TRAV13-1 TRAJ49 CDR3: CAATPGRTGNQFYF beta TRBV4-2 TRBJ2-5 CDR3: CASSQGQGDETQYF	recognises
TCR CAVSERGAQKLVF / CSAPSGGGRASGANVLTF (TCR) alpha TRAV8-6 TRAJ54 CDR3: CAVSERGAQKLVF beta TRBV20-1 TRBJ2-6 CDR3: CSAPSGGGRASGANVLTF	recognises
…-1 (TCR) alpha TRAV8-6 TRAJ24 CDR3: CAVSEDDSWGKLQF beta TRBV29-1 TRBJ1-6 CDR3: CSVARDRNSPLHF	no recognition
TCR CALTMKTSYDKVIF / CASSIGTSGPDTQYF (TCR) alpha TRAV9-2 TRAJ50 CDR3: CALTMKTSYDKVIF beta TRBV19 TRBJ2-3 CDR3: CASSIGTSGPDTQYF	recognises
TCR CAATDTGNQFYF / CASSQHGQGNQPQHF (TCR) alpha TRAV13-1 TRAJ49 CDR3: CAATDTGNQFYF beta TRBV7-8 TRBJ1-5 CDR3: CASSQHGQGNQPQHF	recognises

Binder	binding result
TCR CAVGSTDSWGKLQF / CASRLDPTGHMNTEAFF (TCR) alpha TRAV8-3 TRAJ24 CDR3: CAVGSTDSWGKLQF beta TRBV19 TRBJ1-1 CDR3: CASRLDPTGHMNTEAFF	recognises
TCR CAASRGTSYDKVIF / CSATGLYNEQFF (TCR) alpha TRAV13-1 TRAJ50 CDR3: CAASRGTSYDKVIF beta TRBV20-1 TRBJ2-1 CDR3: CSATGLYNEQFF	recognises
TCR CAGRPNSGGSNYKLTF / CASSDQAAWAGYTF (TCR) alpha TRAV35 TRAJ53 CDR3: CAGRPNSGGSNYKLTF beta TRBV19 TRBJ1-2 CDR3: CASSDQAAWAGYTF	recognises
TCR CAGKENSGGSNYKLTF / CASRVQGARAEAFF (TCR) alpha TRAV25 TRAJ53 CDR3: CAGKENSGGSNYKLTF beta TRBV19 TRBJ1-1 CDR3: CASRVQGARAEAFF	recognises
TCR CIVRSQGGSYIPTF / CATSRDTMTSIGTDTQYF (TCR) alpha TRAV26-1 TRAJ6 CDR3: CIVRSQGGSYIPTF beta TRBV15 TRBJ2-3 CDR3: CATSRDTMTSIGTDTQYF	recognises
TCR CAASRGTSYDKVIF / CSVDRYYNEQFF (TCR) alpha TRAV13-1 TRAJ50 CDR3: CAASRGTSYDKVIF beta TRBV29-1 TRBJ2-1 CDR3: CSVDRYYNEQFF	recognises
TCR CATDAELGNKLVF / CASSQDRGRGTDTQYF (TCR) alpha TRAV17 TRAJ47 CDR3: CATDAELGNKLVF beta TRBV4-2 TRBJ2-3 CDR3: CASSQDRGRGTDTQYF	recognises
TCR CAAADTGNQFYF / CASSSHGQGNQPQHF (TCR) alpha TRAV13-1 TRAJ49 CDR3: CAAADTGNQFYF beta TRBV7-8 TRBJ1-5 CDR3: CASSSHGQGNQPQHF	recognises
TCR CAVNRADSWGKLQF / CASSIDKTGHSNQPQHF (TCR) alpha TRAV12-2 TRAJ24 CDR3: CAVNRADSWGKLQF beta TRBV19 TRBJ1-5 CDR3: CASSIDKTGHSNQPQHF	recognises
TCR755 (TCR) alpha TRAV12-3 TRAJ8 CDR3: CAMSETRFQKLVF beta TRBV19 TRBJ2-7 CDR3: CASSSTGGNYEQYF	recognises
TCR CAGRPNSGGSNYKLTF / CASSGQQALYGYTF (TCR) alpha TRAV35 TRAJ53 CDR3: CAGRPNSGGSNYKLTF beta TRBV19 TRBJ1-2 CDR3: CASSGQQALYGYTF	recognises
TCR CAGSPSQGGSEKLVF / CSARPLGTSGRDEQFF (TCR) alpha TRAV35 TRAJ57 CDR3: CAGSPSQGGSEKLVF beta TRBV20-1 TRBJ2-1 CDR3: CSARPLGTSGRDEQFF	no recognition
TCR108 (TCR) alpha TRAV8-3 TRAJ24 CDR3: CAVGFTDSWGKLQF beta TRBV19 TRBJ2-1 CDR3: CASSIDPSGNHYNEQFF	recognises
TCR CAGRPTSGGSNYKLTF / CASSGGQAYYGYTF (TCR) alpha TRAV35 TRAJ53 CDR3: CAGRPTSGGSNYKLTF beta TRBV19 TRBJ1-2 CDR3: CASSGGQAYYGYTF	recognises
TCR CAVSEKNTGFQKLVF / CASRKGLGDTDTQYF (TCR) alpha TRAV8-6 TRAJ8 CDR3: CAVSEKNTGFQKLVF beta TRBV6-1 TRBJ2-3 CDR3: CASRKGLGDTDTQYF	recognises
TCR CAMREGHIQGAQKLVF / CASSSGNLNTEAFF (TCR) alpha TRAV14/DV4 TRAJ54 CDR3: CAMREGHIQGAQKLVF beta TRBV19 TRBJ1-1 CDR3: CASSSGNLNTEAFF	recognises

Target: T3, hemagglutinin (HA) of pandemic 2009 …
Test: activation reporter or marker

Binder	binding result
TCR43 (TCR) alpha TRAV13-1 TRAJ43 CDR3: CAASDNDMRF beta TRBV4-2 TRBJ1-2 CDR3: CASSQETQGRNYGYTF	recognises
TCR275 (TCR) alpha TRAV13-1 TRAJ43 CDR3: CAANNNDMRF beta TRBV4-2 TRBJ1-2 CDR3: CASSQETQGRNYGYTF	recognises
